The values below are quoted from earlier work in patent US20180369330A1, “METHODS AND COMPOSITIONS USING INTEGRIN-BASED THERAPEUTICS” (La Jolla Institute for Allergy and Immunology, priority 2016, published 2018).

The conditions of series [1]: patients, clinical trials or clinical use.
The target in the next series is T1, αVβ3 (Homo sapiens, UniProt P05106+P06756).
T1 construct: host or cells: patients with glioblastoma (cited trials)
The conditions noted are these: patients with glioblastoma.

T1 sequence (P06756 31-889 limits assumed): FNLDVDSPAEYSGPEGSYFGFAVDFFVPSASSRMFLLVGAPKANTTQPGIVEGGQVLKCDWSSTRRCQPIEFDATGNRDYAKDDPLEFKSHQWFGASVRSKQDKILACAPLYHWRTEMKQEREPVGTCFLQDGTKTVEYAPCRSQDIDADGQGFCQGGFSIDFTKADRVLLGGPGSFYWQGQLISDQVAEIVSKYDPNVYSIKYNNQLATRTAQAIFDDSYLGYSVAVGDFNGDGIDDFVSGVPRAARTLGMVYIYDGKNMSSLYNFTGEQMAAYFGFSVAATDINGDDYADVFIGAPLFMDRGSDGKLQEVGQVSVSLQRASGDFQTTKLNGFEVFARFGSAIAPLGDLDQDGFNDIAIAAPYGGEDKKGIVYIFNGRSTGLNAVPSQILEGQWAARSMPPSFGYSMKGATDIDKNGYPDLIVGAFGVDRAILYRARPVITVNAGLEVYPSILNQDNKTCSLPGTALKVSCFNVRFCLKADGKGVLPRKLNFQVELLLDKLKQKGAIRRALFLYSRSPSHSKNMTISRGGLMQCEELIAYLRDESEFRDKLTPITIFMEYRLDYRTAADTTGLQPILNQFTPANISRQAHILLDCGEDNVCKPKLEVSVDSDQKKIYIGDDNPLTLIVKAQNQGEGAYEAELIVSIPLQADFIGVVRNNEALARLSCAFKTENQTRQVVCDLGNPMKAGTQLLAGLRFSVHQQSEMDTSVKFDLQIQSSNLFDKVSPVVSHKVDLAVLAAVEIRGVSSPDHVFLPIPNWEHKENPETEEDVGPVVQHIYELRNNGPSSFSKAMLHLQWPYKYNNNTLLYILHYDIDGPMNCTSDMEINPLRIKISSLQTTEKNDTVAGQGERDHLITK
T1 sequence (P06756 891-1048 limits assumed): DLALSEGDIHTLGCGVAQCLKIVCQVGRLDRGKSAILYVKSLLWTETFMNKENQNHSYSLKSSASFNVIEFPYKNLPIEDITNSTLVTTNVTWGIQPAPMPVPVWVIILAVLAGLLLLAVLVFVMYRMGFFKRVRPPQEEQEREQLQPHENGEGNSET
T1 sequence (P05106 27-788): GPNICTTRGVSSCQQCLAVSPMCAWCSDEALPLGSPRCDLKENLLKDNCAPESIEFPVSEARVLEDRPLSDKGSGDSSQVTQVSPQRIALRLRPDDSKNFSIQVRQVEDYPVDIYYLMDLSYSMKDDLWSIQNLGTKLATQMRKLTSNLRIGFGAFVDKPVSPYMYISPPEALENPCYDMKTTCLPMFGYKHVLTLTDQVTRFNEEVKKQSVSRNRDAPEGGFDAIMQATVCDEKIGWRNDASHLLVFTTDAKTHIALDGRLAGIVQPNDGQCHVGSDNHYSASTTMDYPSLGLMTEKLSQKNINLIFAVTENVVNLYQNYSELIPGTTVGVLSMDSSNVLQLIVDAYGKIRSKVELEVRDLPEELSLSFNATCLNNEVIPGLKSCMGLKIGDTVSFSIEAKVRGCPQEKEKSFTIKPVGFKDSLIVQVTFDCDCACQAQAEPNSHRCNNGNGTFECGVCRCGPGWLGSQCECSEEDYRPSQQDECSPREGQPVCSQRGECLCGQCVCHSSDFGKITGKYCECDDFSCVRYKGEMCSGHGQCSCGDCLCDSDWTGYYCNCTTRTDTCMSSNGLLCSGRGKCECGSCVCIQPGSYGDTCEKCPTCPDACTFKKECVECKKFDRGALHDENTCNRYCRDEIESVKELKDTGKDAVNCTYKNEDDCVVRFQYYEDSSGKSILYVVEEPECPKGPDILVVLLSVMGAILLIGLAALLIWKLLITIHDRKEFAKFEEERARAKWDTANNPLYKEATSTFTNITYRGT

Take “Natalizumab: antibody targeting lymphocyte α4β1 and α4β7 integrins”: the progressive multifocal leukoencephalopathy result in series [1] was “rare but serious complication”.
“vedolizumab: antibody to a combinatorial epitope in α4β7”: the progressive multifocal leukoencephalopathy result in series [1] was “has not been observed”.
Turning to `CC(C)[C@H]1C(=O)N[C@@H](CCCN=C(N)N)C(=O)NCC(=O)N[C@@H](CC(=O)O)C(=O)N[C@H](Cc2ccccc2)C(=O)N1C` [Cilengitide], the “efficacy in limiting tumor angiogenesis and progression” value on αVβ3 is “has not shown efficacy”.
